# Laboratory results reported in patent US20240200044, “EVOLUTION OF TALENS” (President and Fellows of Harvard College, published 2024).
# B1: CBX8 5'T site (dsDNA)
# DNA 1: TTCAGGAGGGCTTCGGC
# DNA 2: GCCGAAGCCCTCCTGAA
# Target: T1, CBX8-directed TALE-omega (synthetic construct, UniProt Q56830 SEQ:41-724)
# T1 chain: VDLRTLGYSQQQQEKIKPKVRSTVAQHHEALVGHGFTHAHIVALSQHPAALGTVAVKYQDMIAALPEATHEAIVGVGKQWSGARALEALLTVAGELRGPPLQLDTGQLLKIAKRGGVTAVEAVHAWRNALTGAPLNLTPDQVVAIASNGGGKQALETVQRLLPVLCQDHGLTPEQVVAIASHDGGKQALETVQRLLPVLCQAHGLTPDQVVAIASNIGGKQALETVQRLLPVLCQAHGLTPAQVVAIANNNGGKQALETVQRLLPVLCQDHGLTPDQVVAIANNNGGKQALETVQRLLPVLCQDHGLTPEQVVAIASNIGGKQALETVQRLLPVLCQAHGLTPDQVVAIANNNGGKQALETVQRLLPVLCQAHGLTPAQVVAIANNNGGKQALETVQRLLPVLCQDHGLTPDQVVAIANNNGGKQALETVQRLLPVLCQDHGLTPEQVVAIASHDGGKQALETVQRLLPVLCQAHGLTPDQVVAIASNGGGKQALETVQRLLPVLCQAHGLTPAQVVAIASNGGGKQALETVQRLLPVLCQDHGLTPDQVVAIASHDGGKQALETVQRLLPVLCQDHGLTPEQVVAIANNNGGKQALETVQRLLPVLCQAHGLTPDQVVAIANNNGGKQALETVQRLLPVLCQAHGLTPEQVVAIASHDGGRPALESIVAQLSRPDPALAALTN
# Experiment: one_hybrid; luciferase induction, 18 aa C-terminus plus GGGGS linker
# Settings: tags: N-terminal FLAG-NLS, C-terminal RNAP omega
# Experimental: This system was used to continuously evolve TALE proteins with novel properties. A series of C-terminal fusions between a previously reported TALE array targeting CBX8 (right half-site TALE)¹⁸, and the RNAP w subunit were tested. […] The sequence specificity of the system was verified using an off-target sequence in the luciferase assay, and performed on- and off-target colorimetric plaque assays using TALE-ω SP and host cells harboring the AP containing the target CBX8 sequence. Similar to the findings with zinc fingers, both luciferase expression and phage propagation were dependent on the presence of the cognate TALE binding site (FIG. 10B). Finally, PACE was performed for 24 h on the cognate AP to optimize the SP backbone.
# Luciferase assay. pOH plasmids were transformed by electroporation into S1030 cells, and grown overnight at 37° C. on LB-agar plates supplemented with 50 μg/mL carbenicillin. Single colonies were used to inoculate cultures which were allowed to grow for ˜12 h at 37° C. in DRM supplemented with 50 μg/mL carbenicillin in a shaker. Cultures were diluted to an OD₆₀₀ of ˜0.3 and allowed to grow for an additional 2 h at 37° C. […] 200 μL aliquots of each sample were then transferred to 96-well opaque plates and luminescence and OD₆₀₀ readings were taken using a Tecan Infinite Pro instrument. Luminescence data were normalized to cell density by dividing by the OD₆₀₀ value.
binder,measurement,value
B1,binding signal,> 10 fold
